The experiment deals with human IL-18 receptor (alpha and beta subunits) on HEK-BLUE IL-18 reporter cells (human) (UniProt Q13478). Put plainly: cell-based or functional assay.
Sequence of human IL-18 receptor (alpha and beta subunits) on HEK-BLUE IL-18 reporter cells (human) (Q13478 19-541, chain 1 of 2): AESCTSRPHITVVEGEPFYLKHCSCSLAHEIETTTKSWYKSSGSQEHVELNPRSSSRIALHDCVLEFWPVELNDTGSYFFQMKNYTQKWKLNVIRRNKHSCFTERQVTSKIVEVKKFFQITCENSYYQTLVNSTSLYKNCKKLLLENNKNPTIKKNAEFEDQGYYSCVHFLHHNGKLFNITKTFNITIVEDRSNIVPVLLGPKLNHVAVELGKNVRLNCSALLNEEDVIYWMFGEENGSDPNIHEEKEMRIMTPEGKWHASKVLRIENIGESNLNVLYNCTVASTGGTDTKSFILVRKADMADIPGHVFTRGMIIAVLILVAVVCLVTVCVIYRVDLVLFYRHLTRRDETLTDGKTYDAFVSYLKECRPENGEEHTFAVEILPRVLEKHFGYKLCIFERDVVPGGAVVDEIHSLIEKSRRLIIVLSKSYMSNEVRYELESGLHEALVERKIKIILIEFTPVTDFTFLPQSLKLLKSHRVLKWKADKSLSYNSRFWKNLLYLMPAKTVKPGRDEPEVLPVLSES
Sequence of human IL-18 receptor (alpha and beta subunits) on HEK-BLUE IL-18 reporter cells (human) (O95256 20-599, chain 2 of 2, further chain): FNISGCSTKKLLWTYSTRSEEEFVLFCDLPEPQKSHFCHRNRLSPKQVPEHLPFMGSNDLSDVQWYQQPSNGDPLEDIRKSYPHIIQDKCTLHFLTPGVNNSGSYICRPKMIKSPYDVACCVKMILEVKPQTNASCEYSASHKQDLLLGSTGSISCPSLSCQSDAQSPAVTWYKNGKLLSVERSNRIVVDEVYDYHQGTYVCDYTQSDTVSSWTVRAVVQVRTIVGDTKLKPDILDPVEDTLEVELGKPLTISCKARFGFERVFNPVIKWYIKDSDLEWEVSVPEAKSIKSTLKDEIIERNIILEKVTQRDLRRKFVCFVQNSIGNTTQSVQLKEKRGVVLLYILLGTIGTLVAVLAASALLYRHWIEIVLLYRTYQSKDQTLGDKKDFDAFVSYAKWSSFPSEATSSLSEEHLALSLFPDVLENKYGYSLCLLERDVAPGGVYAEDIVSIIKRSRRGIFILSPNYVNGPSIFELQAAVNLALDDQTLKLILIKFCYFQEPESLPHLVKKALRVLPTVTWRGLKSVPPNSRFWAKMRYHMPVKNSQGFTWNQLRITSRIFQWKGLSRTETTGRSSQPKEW

As for “Human recombinant IL-18 (R&D Systems #9124-IL-050/CF) (from UniProt Q14116 1-193) (ligand)”, the EC50, NF-κB reporter activity in HEK-BLUE IL-18 cells came to 0.38 pM.

For the origin of these results see patent publication US20240158457A1, “INTERLEUKIN-18 RECEPTOR BINDING POLYPEPTIDES AND USES THEREOF” (Medikine, Inc., priority 2022, published 2024).
